Laboratory results taken from patent US20260250318A1, “COMPOSITIONS AND METHODS FOR CROSSING THE BLOOD BRAIN BARRIER” (VOYAGER THERAPEUTICS, INC., priority 2022, published 2026).

How the values were obtained:
[1] = target: T1, ALPL transcript variant 2 that lacks the ER signal (Homo sapiens, UniProt P05186); experiment: Transduction assay in HEK 293T cells expressing ALPL with deletion of the ER localization signal; type: cell-based; details: luciferase, relative to pCMV6
T1 construct: expressed in transfected cells; host or cells: HEK 293T
T1 sequence (P05186 1-469 isoform P05186-3): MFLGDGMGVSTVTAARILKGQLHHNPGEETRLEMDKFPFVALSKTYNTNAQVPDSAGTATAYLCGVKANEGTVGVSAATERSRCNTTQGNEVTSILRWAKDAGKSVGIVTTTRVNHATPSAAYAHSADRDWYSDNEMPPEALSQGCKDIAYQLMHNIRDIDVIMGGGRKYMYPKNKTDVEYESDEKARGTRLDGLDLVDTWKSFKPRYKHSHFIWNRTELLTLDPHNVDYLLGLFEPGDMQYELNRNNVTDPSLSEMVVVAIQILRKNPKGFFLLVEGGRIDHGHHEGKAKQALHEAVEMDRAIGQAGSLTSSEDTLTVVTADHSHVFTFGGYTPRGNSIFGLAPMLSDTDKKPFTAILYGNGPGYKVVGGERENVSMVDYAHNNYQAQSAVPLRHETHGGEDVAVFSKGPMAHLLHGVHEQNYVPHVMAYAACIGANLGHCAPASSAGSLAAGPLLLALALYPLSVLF
Experimental: To determine if deletion of the endoplasmic reticulum (ER) localization signal of ALPL affected transduction of the TTM-001 and TTM-002 capsid variants, HEK 293T cells were transfected via calcium phosphate transfection with a plasmid expressing ALPL, ALP with a deletion of the ER localization signal (ALPL transcript variant 2 that lacks the ER signal (NM_001127501, which is incorporated by reference herein)), or a pCMV6 negative control. At 24 hours post-transfection, the HEK 293T cells expressing the ALPL receptor were transduced with an AAV particle comprising the TTM-001 capsid variant, the TTM-002 capsid variant, or an AAV9 capsid control, expressing a GFP payload. At 24-hours post-transduction, luciferase activity (RLU) was measured to quantify AAV cellular transduction. Data was normalized to fold change in luciferase activity (RLU) compared to the pCMV6 control.

[2] = system: brains and tissues (liver quadriceps, and heart); experiment: NGS fold enrichment of capsid variants in marmosets; type: in vivo, marmosets (Callithrix jacchus); details: 2E13 vg/kg IV, 28 days
Source text: (§1) To investigate tropism in marmoset monkeys, AAV particles comprising the TTM-001 capsid variant, the TTM-002 capsid variant, an AAV9 capsid variant comprising SEQ ID NO: 966, or an AAV9 control, were intravenously injected into NHPs (n=2, >10 months of age) at a dose of 2E13 vg/kg (8.75E12 vg/mL). After 28-days in life, the brains and tissues (liver quadriceps, and heart) of the NHPs were collected and RNA was extracted. Following RNA recovery and RT-PCR amplification, a systematic NGS enrichment analysis was performed to calculate the fold enrichment ratio relative to the AAV9 wild-type control.

brain [3] = experiment: Second cross-species screen, synthetic library passage 3 in C57Bl/6 mice; type: in vivo; details: third passage (P3)
Experimental: (§2) There were approximately 500 variants in this synthetic library. This synthetic library was then injected back into both strains of mice (C57Bl/6 and BALB/c; passage 3). RNA was recovered from the mouse brains, RT-PCR amplification was performed, and fold-enrichment relative to wild-type AAV9 was calculated by NGS analysis, which is provided in Table 11.

brain [4] = experiment: Second cross-species screen, synthetic library passage 3 in BALB/c mice; type: in vivo; details: for Fold enrichment over AAV9 in BALB/c: third passage (P3)
Experimental: as §2

[5] = target: T2, isoform 1 (Alkaline phosphatase, placental-like 2 (ALPPL2)) (Homo sapiens, UniProt P10696); experiment: Transduction assay in HEK 293T cells expressing isoform 1; type: cell-based; details: for Luciferase Activity (RLU): Table 30, Isoform 1 transfected cells; for increase in transduction in cells expressing isoform 1: luciferase activity (RLU)
T2 construct: expressed in transfected cells; host or cells: HEK 293T
T2 sequence (P10696 20-503): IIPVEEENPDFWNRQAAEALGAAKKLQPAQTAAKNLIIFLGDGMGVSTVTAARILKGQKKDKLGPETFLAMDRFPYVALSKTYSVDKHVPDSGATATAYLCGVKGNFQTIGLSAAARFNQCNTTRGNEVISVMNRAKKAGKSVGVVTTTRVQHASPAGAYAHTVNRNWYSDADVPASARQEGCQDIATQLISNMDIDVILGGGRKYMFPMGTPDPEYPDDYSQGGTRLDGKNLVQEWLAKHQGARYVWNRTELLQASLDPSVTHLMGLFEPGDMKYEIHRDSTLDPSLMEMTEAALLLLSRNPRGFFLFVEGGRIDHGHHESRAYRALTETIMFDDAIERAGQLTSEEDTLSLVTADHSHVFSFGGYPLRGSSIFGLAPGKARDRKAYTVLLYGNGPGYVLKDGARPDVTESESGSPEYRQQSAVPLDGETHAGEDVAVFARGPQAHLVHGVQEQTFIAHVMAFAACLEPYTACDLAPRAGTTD
Source text: (§3) Three isoforms of ALPL exist, isoform 1 (Alkaline phosphatase, placental-like 2 (ALPPL2), NM_031313, which is incorporated by reference herein), isoform 2 (alkaline phosphatase, placental (ALPP), NM_001632, which is incorporated by reference herein), and isoform 3 (alkaline phosphatase, intestinal (ALPLI), NM_001631, which is incorporated by reference herein), that can also be expressed on cell surfaces via a GPI-anchor. Isoform 1 is 56.25% identical and 72.54% similar (gaps: 4.17%) to ALPL, isoform 2 is 54.96% identical and 71.37% similar (gaps: 2.29%) to ALPL, and isoform 3 is 55.98% identical and 72.11% similar (gaps: 3.04%) to ALPL. The transduction assay described above was repeated with the three isoforms. HEK 293T cells were transfected via calcium phosphate transfection with a plasmid expressing ALPL, isoform 1 of ALPL, isoform 2 of ALPL, isoform 3 of ALPL, an AAVR positive control, or a pCMV6 negative control. […] At 24-hours post-transduction, luciferase activity (RLU) was measured to quantify AAV cellular transduction.

brain [6] = experiment: Second cross-species screen, passage 2 in BALB/c mice after first passage in NHPs; type: in vivo
Experimental: (§4) A second cross-species evolution screen was performed using an AAV capsid variant library with a modification in loop IV introduced as described above and passaging it once through NHPs (passage 1) and then subsequently injected it into two different strains of mice (passage 2), C57Bl/6 and BALB/c. The fold-enrichment for each variant in the brain of each mouse species was calculated by systematic NGS enrichment analysis following RNA recovery and RT-PCR amplification. The fold enrichment values in the second passage in mice were compared to those fold enrichment values from the second pass that was performed in NHPs as described above. […] Further, 10 of these 12 variants comprised the SPH motif and a positive residue in one of the next three subsequent residues (Table 10).

[7] = target: T3, isoform 2 (alkaline phosphatase, placental (ALPP)) (Homo sapiens, UniProt P05187); experiment: Transduction assay in HEK 293T cells expressing isoform 2; type: cell-based; details: for Luciferase Activity (RLU): Table 30, Isoform 2 transfected cells; for increase in transduction in cells expressing isoform 2: luciferase activity (RLU)
T3 construct: expressed in transfected cells; host or cells: HEK 293T
T3 sequence (P05187 23-506): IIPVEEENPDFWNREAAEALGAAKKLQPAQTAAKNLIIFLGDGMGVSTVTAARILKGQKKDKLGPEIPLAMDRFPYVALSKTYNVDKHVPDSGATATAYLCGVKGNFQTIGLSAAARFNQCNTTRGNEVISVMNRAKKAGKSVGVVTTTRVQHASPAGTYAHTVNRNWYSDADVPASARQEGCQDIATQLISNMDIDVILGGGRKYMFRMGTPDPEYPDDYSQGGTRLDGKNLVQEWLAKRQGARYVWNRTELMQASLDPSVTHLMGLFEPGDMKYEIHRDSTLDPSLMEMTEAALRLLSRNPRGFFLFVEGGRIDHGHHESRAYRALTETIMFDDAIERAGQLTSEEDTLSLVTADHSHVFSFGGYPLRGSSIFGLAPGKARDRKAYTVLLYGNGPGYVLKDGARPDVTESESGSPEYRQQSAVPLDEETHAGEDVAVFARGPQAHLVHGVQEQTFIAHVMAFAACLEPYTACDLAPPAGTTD
Source text: as §3

brain [8] = experiment: Second cross-species screen, passage 2 in C57Bl/6 mice after first passage in NHPs; type: in vivo; details: P2 in C57Bl/6 after first passage in NHPs
Experimental: as §4

[9] = system: brains and tissues (liver, DRG, quadriceps, and heart); experiment: NGS fold enrichment of capsid variants in African green monkeys; type: in vivo, African green monkeys (Chlorocebus sabaeus); details: 2E13 vg/kg IV, 14 days
Source text: as §1, with “African green” for “marmoset”, “control under the control of a synapsin promoter,” for “control,”, “3-12 years” for “>10 months”, “vg/kg.” for “vg/kg (8.75E12 vg/mL).”, “14-days” for “28-days”, “(liver, DRG,” for “(liver”

[10] = P3, average of BALB/c and C57Bl/6

| Molecule | increase in transduction in cells expressing ALPL with deleted ER localization signal [1] | expression relative to AAV9 in the heart of marmosets [2] | fold increase in expression relative to AAV9 in the brain of marmosets [2] [fold] | Fold enrichment over AAV9 in C57Bl/6 (brain [3]) [fold] | Average fold enrichment over AAV9 (brain [4]; [10]) [fold] | Average fold enrichment over AAV9 (brain [4]; P3, average of BALB/c and C57Bl/6, listed as GSGSPHSKAQNQQT) [fold] | Fold enrichment over AAV9 in BALB/c (brain [4]) [fold] | Luciferase Activity (RLU) [5] | increase in transduction in cells expressing isoform 1 [5] | Fold enrichment over AAV9 in BALB/c P2 (brain [6]) [fold] | Luciferase Activity (RLU) [7] | increase in transduction in cells expressing isoform 2 [7] | Fold enrichment over AAV9 in C57Bl/6 P2 (brain [8]) [fold] | expression relative to AAV9 in the heart of African green monkeys [9] | fold increase in expression relative to AAV9 in the brain of African green monkeys [9] [fold] | Average fold enrichment over AAV9 (brain [4]; P3, average of BALB/c and C57Bl/6, listed as GHDSPHKSGQNQQT) [fold] |
| --- | --- | --- | --- | --- | --- | --- | --- | --- | --- | --- | --- | --- | --- | --- | --- | --- |
| TTM-001: AAV9 capsid variant comprising SPHSKA (SEQ ID NO: 941) in loop IV (protein) chain 1: MAADGYLPDWLEDNLSEGIREWWALKPGAPQPKANQQHQDNARGLVLPGYKYLGPGNGLDKGEPVNAADAAALEHDKAYDQQLKAGDNPYLKYNHADAEFQERLKEDTSFGGNLGRAVFQAKKRLLEPLGLVEEAAKTAPGKKRPVEQSPQEPDSSAGIGKSGAQPAKKRLNFGQTGDTESVPDPQPIGEPPAAPSGVGSLTMASGGGAPVADNNEGADGVGSSSGNWHCDSQWLGDRVITTSTRTWALPTYNNHLYKQISNSTSGGSSNDNAYFGYSTPWGYFDFNRFHCHFSPRDWQRLINNNWGFRPKRLNFKLFNIQVKEVTDNNGVKTIANNLTSTVQVFTDSDYQLPYVLGSAHEGCLPPFPADVFMIPQYGYLTLNDGSQAVGRSSFYCLEYFPSQMLRTGNNFQFSYEFENVPFHSSYAHSQSLDRLMNPLIDQYLYYLSKTINGSGSPHSKAQNQQTLKFSVAGPSNMAVQGRNYIPGPSYRQQRVSTTVTQNNNSEFAWPGASSWALNGRNSLMNPGPAMASHKEGEDRFFPLSGSLIFGKQGTGRDNVDADKVMITNEEEIKTTNPVATESYGQVATNHQSAQAQAQTGWVQNQGILPGMVWQDRDVYLQGPIWAKIPHTDGNFHPSPLMGGFGMKHPPPQILIKNTPVPADPPTAFNKDKLNSFITQYSTGQVSVEIEWELQKENSKRWNPEIQYTSNYYKSNNVEFAVNTEGVYSEPRPIGTRYLTRNL chain 2: GSGSPHSKAQNQQT | did not occur | a significant increase in expression relative to AAV9 | 703.3 | 65.853 | 63.1 | 63.083 | 60.312 | 4,072 RLU | did not occur | 44.58 | 7,456 RLU | did not occur | 14.48 | a significant increase in expression relative to AAV9 | 43.5 |  |
| TTM-002: AAV9 capsid variant comprising HDSPHK (SEQ ID NO: 2) in loop IV (protein) chain 1: MAADGYLPDWLEDNLSEGIREWWALKPGAPQPKANQQHQDNARGLVLPGYKYLGPGNGLDKGEPVNAADAAALEHDKAYDQQLKAGDNPYLKYNHADAEFQERLKEDTSFGGNLGRAVFQAKKRLLEPLGLVEEAAKTAPGKKRPVEQSPQEPDSSAGIGKSGAQPAKKRLNFGQTGDTESVPDPQPIGEPPAAPSGVGSLTMASGGGAPVADNNEGADGVGSSSGNWHCDSQWLGDRVITTSTRTWALPTYNNHLYKQISNSTSGGSSNDNAYFGYSTPWGYFDFNRFHCHFSPRDWQRLINNNWGFRPKRLNFKLFNIQVKEVTDNNGVKTIANNLTSTVQVFTDSDYQLPYVLGSAHEGCLPPFPADVFMIPQYGYLTLNDGSQAVGRSSFYCLEYFPSQMLRTGNNFQFSYEFENVPFHSSYAHSQSLDRLMNPLIDQYLYYLSKTINGHDSPHKSGQNQQTLKFSVAGPSNMAVQGRNYIPGPSYRQQRVSTTVTQNNNSEFAWPGASSWALNGRNSLMNPGPAMASHKEGEDRFFPLSGSLIFGKQGTGRDNVDADKVMITNEEEIKTTNPVATESYGQVATNHQSAQAQAQTGWVQNQGILPGMVWQDRDVYLQGPIWAKIPHTDGNFHPSPLMGGFGMKHPPPQILIKNTPVPADPPTAFNKDKLNSFITQYSTGQVSVEIEWELQKENSKRWNPEIQYTSNYYKSNNVEFAVNTEGVYSEPRPIGTRYLTRNL chain 2: GHDSPHKSGQNQQT | did not occur | a significant increase in expression relative to AAV9 | 366.6 | 51.125 | 66.8 |  | 82.460 | 1,114 RLU | did not occur | 59.14 | 3,465 RLU | did not occur | 27.15 | a significant increase in expression relative to AAV9 | 13.8 | 66.792 |
